{"source": "paper doi:10.1101/2020.09.08.280818", "key": {"[1]": {"target": "SARS-CoV-2 spike glycoprotein stabilised in the prefusion conformation (P2 S), TwinStrep-tagged (SARS-CoV-2) (UniProt P0DTC2)", "assay": "cryo-EM structure"}, "[2]": {"target": "human ACE2 peptidase domain (PD), Avi-tagged (human)", "assay": "BLI"}}, "data": [{"substance": "SARS-CoV-2 spike glycoprotein stabilised in the prefusion conformation (P2 S), TwinStrep-tagged (from UniProt P0DTC2 14-1273) (natural protein)", "values": [{"measurement": "stoichiometry N", "setting": "[1]", "value": 3}, {"measurement": "Kd", "setting": "[2]", "value": 1, "unit": "nM"}]}]}
